Key:
[1] = target: T1, rhERFE1 (human, UniProt Q4G0M1 29-354); assay: checkerboard sandwich ELISA, capture antibody
T1 construct: The FLAG tag was mostly lost during cell culture; also called recombinant hERFE; recombinant human erythroferrone 1
T1 sequence: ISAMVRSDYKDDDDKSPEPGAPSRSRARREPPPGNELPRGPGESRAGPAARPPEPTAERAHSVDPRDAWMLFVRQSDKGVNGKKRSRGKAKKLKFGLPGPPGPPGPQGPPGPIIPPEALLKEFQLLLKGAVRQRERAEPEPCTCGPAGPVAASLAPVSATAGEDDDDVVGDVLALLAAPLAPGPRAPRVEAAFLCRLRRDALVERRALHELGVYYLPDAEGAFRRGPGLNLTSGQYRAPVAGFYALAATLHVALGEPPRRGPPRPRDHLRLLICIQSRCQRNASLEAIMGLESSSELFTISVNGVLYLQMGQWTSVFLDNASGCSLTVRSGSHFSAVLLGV

[2] = target: T2, peptide ELPRGPGESRAGPAARPP (human); assay: peptide epitope scanning
T2 peptide: ELPRGPGESRAGPAARPP

[3] = target: T3, human erythroferrone (human, UniProt Q4G0M1 29-354); assay: sandwich ELISA on human serum, Mab#9 as capture antibody
T3 construct: Native hormone in human serum, detected by the Mab#9 / Mab#42 sandwich ELISA; also called hERFE; serum hERFE
T3 sequence (looked up): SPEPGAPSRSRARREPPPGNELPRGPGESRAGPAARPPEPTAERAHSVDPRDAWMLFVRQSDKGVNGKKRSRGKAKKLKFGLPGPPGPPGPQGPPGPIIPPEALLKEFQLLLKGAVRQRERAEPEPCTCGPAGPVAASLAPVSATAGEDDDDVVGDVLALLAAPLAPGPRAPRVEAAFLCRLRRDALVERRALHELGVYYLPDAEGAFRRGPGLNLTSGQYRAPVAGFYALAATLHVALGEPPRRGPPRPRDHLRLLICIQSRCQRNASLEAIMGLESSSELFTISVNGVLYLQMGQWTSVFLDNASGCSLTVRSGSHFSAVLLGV
Experimental: (§1) 96-well high binding plates (Costar #3590) were coated with Mab#9 diluted to 1 μg/ml in sodium carbonate buffer (50 mM, pH 9.6), overnight at 4° C. Plates were washed 3-times with TB S-T (TBS +0.05% Tween 20) then blocked for 1 hour at room temperature with 200 µl/well Blocking Buffer (BB: PBS,0.2% Na casein, 0.05% Tween 20, 0.1M NaCl). Recombinant hERFE2 standard was first diluted to 1 μg/ml and then serially diluted in BB to 10, 5, 2.5, 1.25, and 0.625 ng/ml. After a 1 hour incubation at 25° C. in a 300 rpm shaker, the plate was washed 4-times with TBS-T, 10 seconds, 25° C., and 300 rpm per wash and incubated 1 hour at 25° C., 300 rpm in shaker with 100 μl/well biotinylated Mab#42 (1 μg/ml in BB). After incubation for 1 hour at 25° C., 300 rpm in shaker, the plate was washed 4-times as before, incubated for 45 minutes with Neutravidin-HRP conjugate (ThermoScientific #31030) 1/5000 (100 μl/well) washed again 3-times as before and developed with 100 μl TMB Substrate System for ELISA (ThermoScientific #34028) at room temperature in the dark for 10 minutes. The reaction was stopped by adding 50 μl of 2N sulfuric acid and the plates were read on a Spectramax 250 (Molecular Devices) at 450 nm.

[4] = target: T4, rhERFE2 (human, UniProt Q4G0M1 29-354); assay: hybridoma supernatant screening; checkerboard sandwich testing
T4 construct: also called Recombinant hERFE2; recombinant human erythroferrone 2
T4 sequence: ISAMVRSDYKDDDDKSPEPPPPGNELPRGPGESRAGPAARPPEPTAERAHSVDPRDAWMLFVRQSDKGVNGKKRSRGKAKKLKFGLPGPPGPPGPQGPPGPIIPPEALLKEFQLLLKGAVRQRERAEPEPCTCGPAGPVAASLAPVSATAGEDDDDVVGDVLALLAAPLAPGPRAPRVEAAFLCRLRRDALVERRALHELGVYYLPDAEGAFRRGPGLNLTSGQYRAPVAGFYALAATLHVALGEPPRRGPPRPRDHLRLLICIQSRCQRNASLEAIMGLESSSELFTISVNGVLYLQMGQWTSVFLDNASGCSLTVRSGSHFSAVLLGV
Source text: Rabbit hybridomas were generated (custom order fulfilled by Abcam, Burlingame, Calif.) from rabbits immunized by rhERFE1 and boosted by rhERFE2. Hybridoma supernatants were selected for reactivity against rhERFE2. After biotinylation of Mabs (EZ-Link sulfo-NHS-LC-LC-Biotin kit, Thermo Fisher Scientific), optimal pair of unbiotinylated capture Mab and biotinylated detection Mab was chosen by checkerboard testing with rhERFE1 and rhERFE2. The cDNAs encoding the final Mab pair (#9 and #42) were cloned from the hybridomas and used to produce the Mabs recombinantly.

[5] = target: T3, human erythroferrone; assay: sandwich ELISA on human serum, biotinylated Mab#42 as detection antibody
Experimental: as §1

[6] = target: T1, rhERFE1; assay: checkerboard sandwich ELISA, biotinylated detection antibody

Measured: binding result

B1: Mab#9 (antibody, V domains shown)
VH: QSVEESGGRLVTPGTPLTLTCTVSGIDLNDNAMRWVRQAPGKGLEWIGVIYIDTSTYYASWAKGRFTISKTSSTTVDLKITSPTTEDTATYFCVREDGYRLGDVWGPGTLVTVSS
VL: ALVMTQTPSSVSAGVGGTVTINCQASQSLYNNNYLSWFQQKPGQPPKLLIYWASTLASGVPSRFSGSGSGTQFTLTISGVACDDAATYYCAGYKSSSNDDFAFGGGTEVVVKG
notes: Rabbit monoclonal from a hybridoma, later made recombinantly; Used unbiotinylated as the capture antibody in the ELISA; also called rabbit monoclonal antibody #9; capture Mab
binds: [1] | [2] | [3] | [4]

B2: Mab#42 (antibody, V domains shown)
VH: QSLEESGGRLVTPGGSLTLTCTVSGIDLSSYEMGWVRQAPGKGLEWIGVIGTDGTAVYATWVKGRFTISKTSTTVDLKMTSLTTEDTATYFCARDSSGNSNYRAFDPWGPGTLVTVSS
VL: AYDMTQTPASVEVAVGGTVTIKCQASQSIYSYLSWYQQKPGQPPKLLIYRASTLASGVPSRFKGSGSGTQFTLTISDLECADAATYYCQQGFVISNVLNSFGGGTEVVVKG
notes: Rabbit monoclonal from a hybridoma, later made recombinantly; also called rabbit monoclonal antibody #42; biotinylated detection Mab
binds: [5] | [4] | [6]
